Source: article PMC3936769, “Back to translation: removal of aIF2 from the 5′-end of mRNAs by translation recovery factor in the crenarchaeon Sulfolobus solfataricus” (Nucleic Acids Research, 2013)
Blank lines part the entries; values can stand above or below the binder they belong to.

Biological target: T1, aIF2-γ subunit of translation initiation factor aIF2, recombinant, His-tagged (Sulfolobus solfataricus, UniProt Q980A5 1-415)
T1 construct: translation initiation factor 2 subunit gamma (aIF2-γ), Sulfolobus solfataricus
T1 sequence (looked up): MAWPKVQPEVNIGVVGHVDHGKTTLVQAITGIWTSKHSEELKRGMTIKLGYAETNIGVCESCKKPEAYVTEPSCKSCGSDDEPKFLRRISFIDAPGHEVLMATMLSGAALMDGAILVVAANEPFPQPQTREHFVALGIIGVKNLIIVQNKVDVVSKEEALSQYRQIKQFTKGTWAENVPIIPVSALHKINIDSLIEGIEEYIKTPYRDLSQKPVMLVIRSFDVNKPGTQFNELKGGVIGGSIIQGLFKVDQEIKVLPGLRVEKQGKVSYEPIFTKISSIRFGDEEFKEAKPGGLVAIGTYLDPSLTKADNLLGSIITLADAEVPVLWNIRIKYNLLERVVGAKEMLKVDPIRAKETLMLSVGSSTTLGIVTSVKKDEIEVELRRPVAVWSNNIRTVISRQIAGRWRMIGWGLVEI
Assay: native gel or EMSA; acidic native polyacrylamide gel electrophoresis of the individual aIF2 subunits and the trimeric complex (Supplementary Figure S3, lanes 1-4)
Settings: both partners purified

- binding result: binds
B1: aIF2-β subunit of translation initiation factor aIF2, recombinant, His-tagged (natural protein, Sulfolobus solfataricus, UniProt Q97W59 1-139, looked up)
chain: MSSEKEYVEMLDRLYSKLPEKGRKEGTQSLPNMIILNIGNTTIIRNFAEYCDRIRREDKICMKYLLKELAAPGNVDDKGELVIQGKFSSQVINTLMERFLKAYVECSTCKSLDTILKKEKKSWYIVCLACGAQTPVKPL
notes: translation initiation factor 2 subunit beta (aIF2-β), Sulfolobus solfataricus; also called aIF2-ß

- binding result: binds
B2: aIF2-α subunit of translation initiation factor aIF2, recombinant, His-tagged (natural protein, Sulfolobus solfataricus, UniProt Q97Z79 1-266, looked up)
chain: MIYSRSKLPSEGEILIATVKQVFDYGSYVSLDEYGGLQAFLPWSEVSSKWVKNIRDVLKENRKVIVKVIRVDRRKGTVDVSLKKVTDDERRKKNLQWKKIQRLDKILELVSQKLKLSEKDAWEQVAWKLEAKYGDPITAIEKAVKEGEKILIDAGVPEIWVKPLLEEASKHAEERKVKMSGLITVRTNEPLGVEKIKEVISKALENIEQDYESLLNIKIYTIGAPRYRVDVVGTNPKEASEALNQIISNLIKIGKEENVDISVVKK
notes: translation initiation factor 2 subunit alpha (aIF2-α), Sulfolobus solfataricus
